B1: endogenous p75 of mouse post-natal (P9) cerebellum / cerebellar neurons (receptor, UniProt Q9Z0W1 32-427, looked up)
chain: KETCSTGMYTHSGECCKACNLGEGVAQPCGANQTVCEPCLDSVTFSDVVSATEPCKPCTECLGLQSMSAPCVEADDAVCRCSYGYYQDEETGRCEACSVCGVGSGLVFSCQDKQNTVCEECPEGTYSDEANHVDPCLPCTVCEDTERQLRECTPWADAECEEIPGRWITRSTPPEGSDVTTPSTQEPEAPPERDLIASTVADTVTTVMGSSQPVVTRGTADNLIPVYCSILAAVVVGLVAYIAFKRWNSCKQNKQGANSRPVNQTPPPEGEKLHSDSGISVDSQSLHDQQTHTQTASGQALKGDGNLYSSLPLTKREEVEKLLNGDTWRHLAGELGYQPEHIDSFTHEACPVRALLASWGAQDSATLDALLAALRRIQRADIVESLCSESTATSPV
notes: Endogenous protein in lysates; also called p75NTR

The target of assay [1] is T1, Nogo receptor, endogenous in P9 cerebellum (UniProt Q99PI8 27-447).
T1 construct: also called NgR; the Nogo receptor
T1 sequence (looked up): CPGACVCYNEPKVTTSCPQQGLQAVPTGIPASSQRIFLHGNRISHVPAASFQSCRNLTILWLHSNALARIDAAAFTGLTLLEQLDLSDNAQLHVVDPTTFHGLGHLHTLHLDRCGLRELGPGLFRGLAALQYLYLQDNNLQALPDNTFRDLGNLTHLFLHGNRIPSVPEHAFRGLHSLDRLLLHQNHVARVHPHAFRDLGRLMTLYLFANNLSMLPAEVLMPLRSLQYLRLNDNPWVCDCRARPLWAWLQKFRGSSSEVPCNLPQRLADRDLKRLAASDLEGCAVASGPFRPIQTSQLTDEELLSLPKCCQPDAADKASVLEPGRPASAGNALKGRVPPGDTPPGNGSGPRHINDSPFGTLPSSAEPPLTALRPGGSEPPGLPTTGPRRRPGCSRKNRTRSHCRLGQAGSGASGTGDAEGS
Put plainly: figure legend (FIG. 11C).

The target of assay [2] is B1. Put plainly: figure legend (FIG. 6C): co-immunoprecipitation of p75 and Rho GDI from cerebellar neurons.
Protocol: The lysates were centrifuged at 13,000×g for 20 min, and the supernatants were collected. […] The immunocomplex was collected with protein A sepharose (Amersham Pharmacia). The suspension was centrifuged at 1,000×g for 5 min. The pellets were washed 4 times with lysis buffer, and subjected to SDS-PAGE, followed by immunoblot analysis using anti-Rho GDIα antibody (Sigma) or anti-RhoA antibody (Santa Cruz Biotechnology).
Assay [3] addresses T2, amino-terminally FLAG-tagged human p75 (human, UniProt P08138 29-427).
T2 construct: also called FLAG-tagged p75; FLAG-p75; not shown: FLAG tag
T2 sequence: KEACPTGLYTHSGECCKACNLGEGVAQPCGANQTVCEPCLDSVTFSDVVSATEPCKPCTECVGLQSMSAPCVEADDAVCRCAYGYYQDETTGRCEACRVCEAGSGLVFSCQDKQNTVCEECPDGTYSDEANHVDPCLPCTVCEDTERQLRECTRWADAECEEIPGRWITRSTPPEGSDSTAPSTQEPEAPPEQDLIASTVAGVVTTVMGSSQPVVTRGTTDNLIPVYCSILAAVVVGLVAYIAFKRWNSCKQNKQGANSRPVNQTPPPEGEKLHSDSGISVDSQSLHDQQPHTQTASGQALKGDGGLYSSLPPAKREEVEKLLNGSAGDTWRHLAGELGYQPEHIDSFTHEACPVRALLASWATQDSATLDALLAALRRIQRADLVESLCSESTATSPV
Put plainly: co-precipitation: p75 precipitated from transfected 293T cells (anti-FLAG, protein A sepharose) incubated with GST-Rho GDI, anti-GST blot.

Take B1: in assay [1], the binding result is “binds”.

B2: Rho GDI, endogenous in mouse post-natal cerebellar neurons (other, UniProt Q99PT1 2-204, looked up)
chain: AEQEPTAEQLAQIAAENEEDEHSVNYKPPAQKSIQEIQELDKDDESLRKYKEALLGRVAVSADPNVPNVIVTRLTLVCSTAPGPLELDLTGDLESFKKQSFVLKEGVEYRIKISFRVNREIVSGMKYIQHTYRKGVKIDKTDYMVGSYGPRAEEYEFLTPMEEAPKGMLARGSYNIKSRFTDDDKTDHLSWEWNLTIKKEWKD
B2: the binding result in assay [2] is recorded as “binds”.

B3: recombinant human GST-Rho GDI (other)
chain: MAEQEPTAEQLAQIAAENEEDEHSVNYKPPAQKSIQEIQELDKDDESLRKYKEALLGRVAVSADPNVPNVVVTGLTLVCSSAPGPLELDLTGDLESFKKQSFVLKEGVEYRIKISFRVNREIVSGMKYIQHTYRKGVKIDKTDYMVGSYGPRAEEYEFLTPVEEAPKGMLARGSYSIKSRFTDDDKTDHLSWEWNLTIKKDWKD
notes: Bought (Cytoskeleton); also called recombinant Rho GDI; not shown: glutathione S-transferase (GST) fusion moiety
On to B3, for which the binding result in assay [3] is on record as “binds”.

Values taken from US20070054848A1 (published 2007).
